Patent publication US20220041685A1 (SUNNYBROOK RESEARCH INSTITUTE, published 2022)
One block for each molecule: values may come before it.

Key:
[1] = biological target: putative VISTA-receptor on murine T-cells (2.10 T-cell clone; primary CD4+ T-cells) (mouse); assay: cell-based or functional assay
hICOS-Fc (R&D Systems) [2] = biological target: T1, hICOS-Fc (R&D Systems) (human, UniProt Q9Y6W8 21-141, limits assumed); assay: SPR single cycle kinetics (Biacore T200), hICOS-Fc immobilized on a CM5 chip, 1:1 model
T1 construct: Bought from R&D Systems; also called human ICOS; not shown: Fc part of a bought fusion protein; not described
T1 sequence (looked up): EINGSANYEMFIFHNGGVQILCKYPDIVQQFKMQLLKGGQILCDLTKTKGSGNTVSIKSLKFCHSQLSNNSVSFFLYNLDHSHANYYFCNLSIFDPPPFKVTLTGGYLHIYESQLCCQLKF

hICOS-Fc (R&D Systems) [3] = biological target: T1, hICOS-Fc (R&D Systems); assay: SPR single cycle kinetics (Biacore T200), hICOS-Fc immobilized on a CM5 chip

B1: hICOSL-Fc (R&D Systems), dimeric human ICOS-L ECD Fc fusion (Fc fusion, not shown: a dimerising Fc or GST; small tags and cut ends)
chain: DTQEKEVRAMVGSDVELSCACPEGSRFDLNDVYVYWQTSESKTVVTYHIPQNSSLENVDSRYRNRALMSPAGMLRGDFSLRLFNVTPQDEQKFHCLVLSQSLGFQEVLSVEVTLHVAANFSVPVVSAPHSPSQDELTFTCTSINGYPRPNVYWINKTDNSLLDQALQNDTVFLNMRGLYDVVSVLRIARTPSVNIGCCIENVLLQQNLTVGSQTGNDIGERDKITENPVSTGEKNAATWS
modifications: Fc-mediated dimer (two copies); the Fc is left out.
Kd (hICOS-Fc (R&D Systems) [2]): 2.9 nM

B2: human ICOS-L.COMP pentamer (human ICOS-L extracellular domain fused to the COMP pentamerization domain, C-terminal histidine tag) (ligand)
chain: DTQEKEVRAMVGSDVELSCACPEGSRFDLNDVYVYWQTSESKTVVTYHIPQNSSLENVDSRYRNRALMSPAGMLRGDFSLRLFNVTPQDEQKFHCLVLSQSLGFQEVLSVEVTLHVAANFSVPVVSAPHSPSQDELTFTCTSINGYPRPNVYWINKTDNSLLDQALQNDTVFLNMRGLYDVVSVLRIARTPSVNIGCCIENVLLQQNLTVGSQTGNDIGERDKITENPVSTGEKNAATWSDLGPQMLRELQETNAALQDVRELLRQQVREITFLKNTVMECDACG
fold stronger KD than hICOSL-Fc (hICOS-Fc (R&D Systems) [3]): ~3 fold
Kd (hICOS-Fc (R&D Systems) [2]): 0.9 nM

Next, values leading:

anti-CD3-induced 2.10 cell proliferation (3H-thymidine) [1]: 1 µg/mL
Molecule: murine VISTA.COMP pentamer, histidine tagged (VISTA.COMP.his) (ligand)

anti-CD3-induced 2.10 cell proliferation (3H-thymidine) [1]: > 30 µg/mL
Molecule: VISTA-Fc (murine VISTA extracellular domain fused to the human IgG-1 Fc region; dimeric) (Fc fusion)
